Measurements as given in patent US11332499B2, “Cyclic peptides and methods of use thereof” (Regents of the University of Minnesota, priority 2018, dated 2022).
“And” between values parts separate entries of the source, which are not always exact repeats. Equal entries are not always repeated. Where two headings read alike, the source gives them in different places. Values belong to the substance of their own block, whether it stands above or below them. Bridge positions count the residues as written; N and C are the ends. Square brackets hold non-standard residues; d marks the D form. Ends that are not written are not given here.

Experiments:
[1] = molecular target: MC3R (Mus musculus, UniProt P33033); settings: β-galactosidase reporter gene assay; previously reported; cited from earlier work
Sequence of MC3R (P33033 whole entry): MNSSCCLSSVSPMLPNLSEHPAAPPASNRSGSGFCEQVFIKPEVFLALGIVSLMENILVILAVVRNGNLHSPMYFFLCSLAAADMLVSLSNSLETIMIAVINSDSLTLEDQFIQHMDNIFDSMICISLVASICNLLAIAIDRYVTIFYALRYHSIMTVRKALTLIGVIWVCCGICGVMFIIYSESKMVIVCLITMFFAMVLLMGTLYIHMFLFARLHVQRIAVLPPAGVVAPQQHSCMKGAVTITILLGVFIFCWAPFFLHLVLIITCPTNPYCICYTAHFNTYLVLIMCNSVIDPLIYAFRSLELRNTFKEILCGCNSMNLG

[2] = molecular target: MC4R (Mus musculus, UniProt P56450); settings: β-galactosidase reporter gene assay; previously reported; cited from earlier work
Sequence of MC4R (Mus musculus, UniProt P56450) (P56450 whole entry): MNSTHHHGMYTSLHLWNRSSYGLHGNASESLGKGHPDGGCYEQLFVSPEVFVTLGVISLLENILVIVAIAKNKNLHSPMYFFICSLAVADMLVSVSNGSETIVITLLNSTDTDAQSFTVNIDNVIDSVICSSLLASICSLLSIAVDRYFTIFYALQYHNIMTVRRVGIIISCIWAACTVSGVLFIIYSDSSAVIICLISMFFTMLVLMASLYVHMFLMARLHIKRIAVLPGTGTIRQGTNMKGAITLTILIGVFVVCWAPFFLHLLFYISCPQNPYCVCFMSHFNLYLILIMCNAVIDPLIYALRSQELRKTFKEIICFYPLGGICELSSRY

[3] = molecular target: MC1R (Mus musculus, UniProt Q01727); settings: previously reported, read-out: MC1R agonist potency, cited from earlier work
Sequence of MC1R (Q01727 whole entry): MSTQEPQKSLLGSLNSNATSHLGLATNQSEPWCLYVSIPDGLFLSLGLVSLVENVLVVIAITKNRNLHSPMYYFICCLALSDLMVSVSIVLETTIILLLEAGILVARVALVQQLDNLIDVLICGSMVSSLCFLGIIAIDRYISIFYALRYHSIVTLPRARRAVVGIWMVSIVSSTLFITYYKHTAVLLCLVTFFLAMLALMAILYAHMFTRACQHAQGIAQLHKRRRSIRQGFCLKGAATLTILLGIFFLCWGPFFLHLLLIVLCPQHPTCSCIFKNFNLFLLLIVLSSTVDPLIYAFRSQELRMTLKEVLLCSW

[4] = molecular target: hMC1R (Homo sapiens, UniProt Q01726); settings: inhibition of α-MSH activity, cited from earlier work
Sequence of hMC1R (Q01726 whole entry): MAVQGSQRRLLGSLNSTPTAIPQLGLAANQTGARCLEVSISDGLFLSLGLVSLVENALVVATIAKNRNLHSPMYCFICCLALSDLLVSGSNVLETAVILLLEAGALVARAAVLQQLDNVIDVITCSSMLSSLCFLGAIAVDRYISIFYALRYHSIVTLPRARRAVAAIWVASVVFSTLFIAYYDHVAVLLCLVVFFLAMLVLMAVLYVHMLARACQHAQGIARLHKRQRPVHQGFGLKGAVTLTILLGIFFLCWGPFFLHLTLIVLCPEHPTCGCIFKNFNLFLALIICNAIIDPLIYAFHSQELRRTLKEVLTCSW

[5] = molecular target: hMC3R (Homo sapiens, UniProt P41968); settings: inhibition of α-MSH activity; cited from earlier work
Sequence of hMC3R (P41968 whole entry): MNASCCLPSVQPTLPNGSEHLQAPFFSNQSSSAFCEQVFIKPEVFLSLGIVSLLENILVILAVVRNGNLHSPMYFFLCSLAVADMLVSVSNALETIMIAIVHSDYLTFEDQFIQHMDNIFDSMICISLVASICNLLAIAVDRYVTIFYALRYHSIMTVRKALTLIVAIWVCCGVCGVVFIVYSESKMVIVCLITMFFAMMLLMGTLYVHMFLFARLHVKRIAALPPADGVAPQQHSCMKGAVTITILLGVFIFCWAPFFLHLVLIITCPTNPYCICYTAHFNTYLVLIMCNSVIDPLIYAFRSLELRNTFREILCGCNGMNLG

[6] = molecular target: T1, MC4R (Homo sapiens, UniProt P32245); parameters: expressed in transfected cells; settings: inhibition of α-MSH activity; cited from earlier work
Target sequence in this assay (P32245 whole entry): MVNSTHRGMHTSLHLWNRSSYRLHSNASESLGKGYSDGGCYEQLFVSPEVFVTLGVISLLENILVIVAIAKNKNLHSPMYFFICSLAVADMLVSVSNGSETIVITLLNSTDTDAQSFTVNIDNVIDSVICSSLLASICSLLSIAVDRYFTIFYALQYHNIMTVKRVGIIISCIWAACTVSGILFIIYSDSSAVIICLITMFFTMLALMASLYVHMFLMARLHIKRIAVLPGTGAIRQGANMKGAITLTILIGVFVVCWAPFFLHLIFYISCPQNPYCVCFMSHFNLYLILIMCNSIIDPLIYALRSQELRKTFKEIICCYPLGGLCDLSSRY

[7] = molecular target: T1, MC4R; settings: previously reported; cited from earlier work
Target sequence in this assay (P32245 whole entry, species assumed): as the sequence (P32245 whole entry) above

[8] = molecular target: T2, mMC1R (Mus musculus, UniProt Q01727); assay: AlphaScreen cAMP assay, agonist activity, HEK293 cells stably expressing mMC1R; format: cell-based; settings: Table 2; at 100 μM, relative to NDP-MSH
T2 construct: expressed in transfected cells
T2 sequence (Q01727 whole entry): as the sequence (Q01727 whole entry) above

[9] = molecular target: T3, mMC3R (Mus musculus, UniProt P33033); assay: AlphaScreen cAMP assay, agonist activity, HEK293 cells stably expressing mMC3R; format: cell-based; settings: Table 2; at 100 μM
T3 construct: expressed in transfected cells
T3 sequence (P33033 whole entry): as the sequence (P33033 whole entry) above

[10] = molecular target: T4, mMC5R (Mus musculus, UniProt P41149); assay: AlphaScreen cAMP assay, agonist and inverse agonist activity, HEK293 cells stably expressing mMC5R; format: cell-based; settings: Table 2; at 100 μM
T4 construct: expressed in transfected cells
T4 sequence (P41149 whole entry): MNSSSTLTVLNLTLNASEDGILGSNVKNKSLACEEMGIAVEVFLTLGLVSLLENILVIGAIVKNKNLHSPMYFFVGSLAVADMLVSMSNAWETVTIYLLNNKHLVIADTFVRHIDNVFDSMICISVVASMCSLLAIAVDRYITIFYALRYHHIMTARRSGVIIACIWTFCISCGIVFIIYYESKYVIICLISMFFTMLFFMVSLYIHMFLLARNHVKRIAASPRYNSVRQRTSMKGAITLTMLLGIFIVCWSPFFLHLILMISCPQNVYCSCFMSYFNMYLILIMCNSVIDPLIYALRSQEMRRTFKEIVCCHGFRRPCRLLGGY

[11] = molecular target: T5, mMC4R (Mus musculus, UniProt P56450); settings: Example 4; from Ki values
T5 sequence (P56450 whole entry): as the sequence (P56450 whole entry) above

[12] = molecular target: T5, mMC4R; assay: AlphaScreen cAMP assay, agonist activity, HEK293 cells stably expressing mMC4R; format: cell-based; parameters: expressed in transfected cells; settings: Table 2; at 100 μM
[13] = molecular target: T6, hMC4R-Kir7.1(M125R) (Homo sapiens, UniProt P32245); assay: Kir7.1 thallium flux assay, HEK293 cells expressing human MC4R and Kir7.1 (M125R); format: cell-based; settings: antagonist Ki / Kir7.1 apparent potency
T6 construct: expressed in transfected cells; Kir7.1 tetracycline-induced)
T6 sequence (P32245 whole entry, stated change not applied): as the sequence (P32245 whole entry) above
Procedure: In this assay, the Kir7.1 (M125R) variant was used since it previously was reported to result in higher unitary conductance compared to the native channel.^39
The compound with the highest apparent potency.
HEK293 cells stably expressing the human MC4R and Kir7.1 (M125R) were grown in MEM medium with 10% FBS without antibiotics, suspended in medium plus 1 μg ml^−1 tetracycline (to induce expression of the transfected tet-sensitive Kir7.1 gene) and plated (20 μL) in 384-well poly-D-lysine coated optical bottom plates (BD Biosciences) at 20,000 cells per well. Plates were incubated overnight for 16-24 h in the cell incubator at 37° C., 5% CO2. […] Plates were incubated in the dark for 1 h at room temperature and dye solution was removed. Upon addition of 20 μL 1×HBSS buffer, a liquid handler added 20 μL of ligand solution to entire plate simultaneously (ligands were prepared by serial dilution in 1×HBSS, 20 mM HEPES, 0.1% BSA, pH 7.3). Plates were incubated in the dark for 20 min (unless otherwise indicated). After a baseline reading on a Thallos Plate-reader (Vanderbilt, Tenn.), 10 μL of a thallium solution (1×HBSS, 20 mM HEPES, 2 mM Tl, pH 7.3) was loaded and fluorescence generated by thallium influx was recorded for 10 min. The signal was normalized to an untreated control.

[14] = test system: free-feeding mice; assay: Mouse feeding study, intracerebroventricular (ICV) administration; format: in vivo; settings: 10 nmol
[15] = test system: free-feeding mice; assay: Mouse feeding study, intrathecal (IT) administration (Example 5); format: in vivo; settings: 10 nmol
Procedure: All studies were performed in standard mouse polycarbonate conventional cages provided by the University of Minnesota's Research Animal Resources (RAR), and were changed weekly by laboratory research staff.
All ICV and IT administration experiments utilized a crossover design with free access to standard chow. Mice were housed in RAR supplied conventional mouse cages. Compound MDE3-119-8e was dissolved in a stock solution of 10 nmols/μL in 3% v/v DMSO (Sigma Aldrich)/saline (0.9% sodium chloride, Hospira Inc., Lake Forest, Ill.). Ligands MDE3-119-2c and MDE3-119-10c were dissolved in 20% solutol (Sigma Aldrich). Matching vehicle controls (3% v/v DMSO in saline and 20% solutol) were prepared in parallel. The day of compound administration, an aliquot of stock solution was diluted with saline to the desired experimental dose in 3 μL, in parallel with vehicle control. For ICV administration, the desired experimental dose (3 μL) or vehicle control (3 μL) was delivered 2 h before lights out (t=0 h). […] Food intake and mouse weight was manually measured at t=0, 2, 4, 6, 8, 24, 48, and 72 h post-injection. […]
For feeding experiments with compound MDE3-119-10c, data were analyzed using the PRISM program (v4.0; GraphPad Inc.) by two-way ANOVA with a Sidak's multiple comparison post hoc test.

[16] = molecular target: T1, MC4R; assay: AlphaScreen cAMP assay, antagonist activity (Schild, NDP-MSH) at hMC4R; format: cell-based; parameters: expressed in transfected cells; settings: Example 5
Target sequence in this assay (P32245 whole entry): as above

[17] = molecular target: T1, MC4R; assay: Competitive radioligand binding, displacement of 125I-NDP-MSH, HEK293 cells expressing hMC4R; parameters: expressed in transfected cells; settings: displacement of 125I-NDP-MSH
Target sequence in this assay (P32245 whole entry): as above

[18] = molecular target: T1, MC4R; assay: Competitive radioligand binding, displacement of 125I-AGRP, HEK293 cells expressing hMC4R; parameters: expressed in transfected cells; settings: displacement of 125I-AGRP
Target sequence in this assay (P32245 whole entry): as above

[19] = molecular target: T5, mMC4R; parameters: expressed in transfected cells; settings: cited from earlier work
[20] = molecular target: T6, hMC4R-Kir7.1(M125R); settings: up to 100 nM; literature; cited from earlier work
[21] = test system: rats; settings: ICV administration into rats; cited from earlier work
[22] = molecular target: T1, MC4R; assay: AlphaScreen cAMP assay, inverse agonist activity at hMC4R; format: cell-based; parameters: expressed in transfected cells; settings: Table 10
Target sequence in this assay (P32245 whole entry): as above

[23] = molecular target: T1, MC4R; parameters: expressed in transfected cells; settings: Table 10; AGRP(87-132), previously reported by Jackson et al.; read-out: hMC4R 125I-NDP-MSH IC50; cited from earlier work
Target sequence in this assay (P32245 whole entry): as above

[24] = molecular target: T2, mMC1R; settings: Table 6; previously described (Wilczynski 2004); read-out: Agonist mMC1R EC50; cited from earlier work
[25] = molecular target: T3, mMC3R; settings: Table 6, previously described (Wilczynski 2004), cited from earlier work
[26] = molecular target: T4, mMC5R; settings: Table 6; previously described (Wilczynski 2004); read-out: Inverse Agonist mMC5R EC50; cited from earlier work

Substance: Tyr-c[Cys-Arg-Phe-Phe-Asn-Ala-Phe-Cys]-Tyr (YCRFFNAFCY; disulfide 2-9) [hAGRP (109-118)]
- MC3R antagonist pA2 [1]: No activity
- MC4R antagonist pA2 [2]: 6.8 ± 0.4
- EC50 ([3]; listed as H-Tyr-c[Cys-Arg-Phe-Phe-Asn-Ala-Phe-Cys]-Tyr-OH): 2890 nM
- EC50 [3]: 3000 nM

Substance: ASP-YY: synthesized ASP variant with two residues changed to the homologous AGRP residues (KKVVRPRTPLSAPCVATRNSCKPPAPACCDPCASCYCRFFRSACYCRVLSLNC; UniProt P42127 80-132, looked up, variant Q115Y S124Y)
- functional antagonist potency, hMC1R [4]: 3.9 nM
- functional antagonist potency, hMC1R ([4]; listed as Agouti-YY): 4.0 nM
- functional antagonist potency, hMC3R [5]: 2.6 nM
- functional antagonist potency, hMC4R [6]: 0.5 nM

Substance: H-DPAATAYCRFFNAFCYARKL-OH (disulfide 8-15) [20 residue peptide]
- EC50 [3]: 960 nM
- MC4R antagonist pA2 [7]: 6.9

- mMC1R percent maximal stimulatory response [8]: 70% @ 100 μM
- mMC3R percent maximal stimulatory response [9]: 35% @
- mMC5R percent maximal stimulatory response [10]: 25% @
- fold selectivity for the mMC4R over the mMC3R [11]: 600 fold and 630 fold
- mMC4R percent maximal stimulatory response [12]: 35% @
Substance: 20 (cyclo(PRFFNFF[dP]); SMILES N=C(N)NCCC[C@@H]1NC(=O)[C@@H]2CCCN2C(=O)[C@H]2CCCN2C(=O)[C@H](Cc2ccccc2)NC(=O)[C@H](Cc2ccccc2)NC(=O)[C@H](CC(N)=O)NC(=O)[C@H](Cc2ccccc2)NC(=O)[C@H](Cc2ccccc2)NC1=O) [Peptide 20]

Substance: c[Pro-Arg-Phe-Phe-Val-Ala-Phe-DPro] [Peptide 13 (Example 1)]
- fold selective for Kir7.1 signaling over cAMP antagonism [13]: 4,000 fold
- cumulative food intake after ICV administration vs vehicle [14]: significant, prolonged decrease in cumulative food intake at 4, 6, 8, 24, 48, and 72 h
- food intake after IT administration vs vehicle [15]: no effect on food intake compared to vehicle
- fold decreased antagonist potency relative to MDE3-119-8c at the hMC4R [16]: 310 fold
- fold decreased binding affinity compared to NDP-MSH [17]: 200 fold
- fold decreased binding affinity compared to AGRP [18]: 200 fold
- fold decreased antagonist potency compared to the Dap substitution at the mMC4R ([19]; previous SAR study (ref 52)): 630 fold

Substance: mini-AGRP: truncated form of AGRP (AGRP87-120, C105A) (CVRLHESCLGQQVPCCDPAATCYCRFFNAFCYCR; ends and bridges not checked; cysteine pairing not given here; UniProt O00253 87-120, looked up, fragment C105A)
- effect on thallium flux [20]: did not affect thallium flux at concentrations up to 100 nM
- increase of 24 h food intake above saline [21]: 21%

- fold selective for cAMP over Kir7.1 signaling [13]: 2 fold
- hMC4R Inverse Agonist, decrease from basal signal [22]: (-35%)
Substance: hAGRP(86-132): C-terminal domain of agouti-related protein, purchased from Peptides International (RCVRLHESCLGQQVPCCDPCATCYCRFFNAFCYCRKLGTAMNPCSRT) [reference compound]
- IC50 [23]: 11 ± 1 nM

Substance: hAGRP(87-132): truncated human agouti-related protein, previously described in Wilczynski et al. 2004
- EC50 [24]: > 100 µM
- Antagonist mMC3R pA2 [25]: 8.9 ± 0.2
- Ki ([25]; read-out: Antagonist mMC3R Ki): 1.3 nM
- EC50 [26]: > 100 µM
- increase of 24 h food intake above saline [21]: 42%
- Antagonist mMC4R pA2 ([19]; Table 6, previously described (Wilczynski 2004)): 9.4 ± 1.0
- Ki ([19]; Table 6, previously described (Wilczynski 2004), read-out: Antagonist mMC4R Ki): 0.4 nM
